Assay results: patent US20090208538A1 (ROCKEFELLER UNIVERSITY, published 2009)

Tests used:
[1] = biological target: T1, HLA-A*0201 (human); test: iTopia binding;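 further: each peptide tested for binding to HLA-A2 molecules immobilized on plates, using a commercial screening kit run per its supplied protocol and reagents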
T1 construct: also called HLA-A2.1; HLA A2.1

[2] = biological target: T1, HLA-A*0201; test: iTopia affinity;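 further: peptide affinity for plate-bound HLA-A2 molecules (iTopia system), with ED50 derived from an eight-point serial peptide dilution series run under binding assay conditions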
[3] = biological target: T1, HLA-A*0201; test: iTopia off-rate;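 further: Half-life of peptide complexes with plate-bound HLA-A2, peptides loaded 18 h at 21 C, washed, then held at 37 C over several time points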
[4] = biological target: T1, HLA-A*0201; test: iTopia net score;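 further: combined score from peptide binding, ED₅₀ and half-life of peptide complexes with plate-bound HLA-A2 molecules, computed by a proprietary formula in iTopia software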

SLTETIECL [cdr2 114-122 SLTETIECL]
binding vs positive control [1]: > 30% | ED50 [2]: 4 µM | t1/2 [3]: 9.3 | iScore [4]: 0.518
